We go through 15 variants from the RNAGym collection of RNA variant scans (doi:10.1093/molbev/msab373).

B1: Azoarcus group I ribozyme (parent)
chain: GUGCCUUGCGCCGGGAAACCACGCAAGGGAUGGUGUCAAAUUCGGCGAAACCUAAGCGCCCGCCCGGGCGUAUGGCAACGCCGAGCCAAGCUUCGGCGCCUGCGCCGAUGAAGGUGUAGAGACUAGACGGCACCCACCUAAGGCAAACGCUAUGGUGAAGGCAUAGUCCAGGGAGUGGCGAAAGUCACACAAACCGG

Variants of B1 are the subject of the data set. As to the kind of experiment: reverse-splicing fitness (ratio to wild type); higher = more active; in vitro selection; Mg2+ level not given. The procedure, abridged:
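An in vitro group I ribozyme library with randomized positions was T7-transcribed and gel-purified. In triplicate, 10 pmol RNA in EPPS pH 7.5 was reacted with 50 pmoles of a 30-nt RNA substrate for 1 h at 37 °C across several added MgCl2 levels (1–48 mM), then stopped with EDTA. Products were reverse transcribed from a substrate-complementary primer, PCR-amplified and sequenced (HiSeq 4000). Fitness is a variant's read proportion after selection over that before, normalised to wild type.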
Regarding GUGCCUUGCGCCGGGAAACCACGCAAGGGAUGGUGUCAAAUUCGGCGAAACCUAAGCGCCCGCCCGGGCGUAUGGCAACGCUGAGCCAAGCUUCGGCGCCUGCGCCGAUGGAGGUGUAGGGACUAGACGGCACCCACCUAAGGCCAACGAUAUGGUGAAGGCAUAGUCUAGGGAGCGGCGAAAGUCACACAAACCGG [C82U A111G A120G A145C C150A C169U U176C], the reverse-splicing fitness is 0.00907.

GUGCCUUGCGCCGGGAAACCACGCAAGGGAUGGUGUCAAAUUCGGCGAAACCUAAGCGCCCGCCCGGGCGUAUGGCAACGCAGAGCCAAGCUUCGGCGCCUGCGCCGAUGGAGGUGUAGAGACUAGACGGCACCCACCUAAGGCUAACGAUAUGGUGAAGGCAUAGUCGAGGGAGUGGCGAAAGUCACACAAACCGG [C82A A111G A145U C150A C169G]: the reverse-splicing fitness was 0.00826.

As to GUGCCUUGCGCCGGGAAACCACGCAAGGGAUGGUGUCAAAUUCGGCGAAACCUAAGCGCCCGCCCGGGCGUAUGGCAACGCCGAGCCAAGCUUCGGCGCCUGCGCCGAUGAAGGUGUAGUGACUAGACGGCACCCACCUAAGGCAAACGCUAUGGUGAAGGCAUAGUCUAGGGAGGGGCGAAAGUCACACAAACCGG [A120U C169U U176G], the reverse-splicing fitness is 0.0138.

For the variant GUGCCUUGCGCCGGGAAACCACGCAAGGGAUGGUGUCAAAUUCGGCGAAACCUAAGCGCCCGCCCGGGCGUAUGGCAACGCGGAGCCAAGCUUCGGCGCCUGCGCCGAUGGAGGUGUAGUGACUAGACGGCACCCACCUAAGGCAAACGCUAUGGUGAAGGCAUAGUCUAGGGAGUGGCGAAAGUCACACAAACCGG [C82G A111G A120U C169U], the reverse-splicing fitness turned out to be 0.00572.

Regarding GUGCCUUGCGCCGGGAAACCACGCAAGGGAUGGUGUCAAAUUCGGCGAAACCUAAGCGCCCGCCCGGGCGUAUGGCAACGCAGAGCCAAGCUUCGGCGCCUGCGCCGAUGAAGGUGUAGAGACUAGACGGCACCCACCUAAGGCAAACGAUAUGGUGAAGGCAUAGUCUAGGGAGUGGCGAAAGUCACACAAACCGG [C82A C150A C169U], the reverse-splicing fitness is 0.00897.

Turning to GUGCCUUGCGCCGGGAAACCACGCAAGGGAUGGUGUCAAAUUCGGCGAAACCUAAGCGCCCGCCCGGGCGUAUGGCAACGCUGAGCCAAGCUUCGGCGCCUGCGCCGAUGGAGGUGUAGAGACUAGACGGCACCCACCUAAGGCUAACGCUAUGGUGAAGGCAUAGUCAAGGGAGUGGCGAAAGUCACACAAACCGG [C82U A111G A145U C169A], the reverse-splicing fitness amounted to 0.00645.

Consider GUGCCUUGCGCCGGGAAACCACGCAAGGGAUGGUGUCAAAUUCGGCGAAACCUAAGCGCCCGCCCGGGCGUAUGGCAACGCCGAGCCAAGCUUCGGCGCCUGCGCCGAUGUAGGUGUAGGGACUAGACGGCACCCACCUAAGGCCAACGGUAUGGUGAAGGCAUAGUCGAGGGAGUGGCGAAAGUCACACAAACCGG [A111U A120G A145C C150G C169G], for which the reverse-splicing fitness is 0.0237.

Turning to GUGCCUUGCGCCGGGAAACCACGCAAGGGAUGGUGUCAAAUUCGGCGAAACCUAAGCGCCCGCCCGGGCGUAUGGCAACGCAGAGCCAAGCUUCGGCGCCUGCGCCGAUGUAGGUGUAGCGACUAGACGGCACCCACCUAAGGCAAACGAUAUGGUGAAGGCAUAGUCGAGGGAGUGGCGAAAGUCACACAAACCGG [C82A A111U A120C C150A C169G], the reverse-splicing fitness worked out at 0.0103.

In the case of GUGCCUUGCGCCGGGAAACCACGCAAGGGAUGGUGUCAAAUUCGGCGAAACCUAAGCGCCCGCCCGGGCGUAUGGCAACGCAGAGCCAAGCUUCGGCGCCUGCGCCGAUGCAGGUGUAGGGACUAGACGGCACCCACCUAAGGCAAACGAUAUGGUGAAGGCAUAGUCCAGGGAGAGGCGAAAGUCACACAAACCGG [C82A A111C A120G C150A U176A], the reverse-splicing fitness is 0.0133.

For GUGCCUUGCGCCGGGAAACCACGCAAGGGAUGGUGUCAAAUUCGGCGAAACCUAAGCGCCCGCCCGGGCGUAUGGCAACGCAGAGCCAAGCUUCGGCGCCUGCGCCGAUGUAGGUGUAGGGACUAGACGGCACCCACCUAAGGCUAACGCUAUGGUGAAGGCAUAGUCUAGGGAGAGGCGAAAGUCACACAAACCGG [C82A A111U A120G A145U C169U U176A], the reverse-splicing fitness was 0.0196.

For the variant GUGCCUUGCGCCGGGAAACCACGCAAGGGAUGGUGUCAAAUUCGGCGAAACCUAAGCGCCCGCCCGGGCGUAUGGCAACGCGGAGCCAAGCUUCGGCGCCUGCGCCGAUGUAGGUGUAGCGACUAGACGGCACCCACCUAAGGCAAACGCUAUGGUGAAGGCAUAGUCUAGGGAGCGGCGAAAGUCACACAAACCGG [C82G A111U A120C C169U U176C], the reverse-splicing fitness turned out to be 0.0166.

As for GUGCCUUGCGCCGGGAAACCACGCAAGGGAUGGUGUCAAAUUCGGCGAAACCUAAGCGCCCGCCCGGGCGUAUGGCAACGCUGAGCCAAGCUUCGGCGCCUGCGCCGAUGUAGGUGUAGUGACUAGACGGCACCCACCUAAGGCGAACGGUAUGGUGAAGGCAUAGUCUAGGGAGGGGCGAAAGUCACACAAACCGG [C82U A111U A120U A145G C150G C169U U176G], the reverse-splicing fitness was found to be 0.00345.

In the case of GUGCCUUGCGCCGGGAAACCACGCAAGGGAUGGUGUCAAAUUCGGCGAAACCUAAGCGCCCGCCCGGGCGUAUGGCAACGCGGAGCCAAGCUUCGGCGCCUGCGCCGAUGGAGGUGUAGGGACUAGACGGCACCCACCUAAGGCCAACGGUAUGGUGAAGGCAUAGUCAAGGGAGCGGCGAAAGUCACACAAACCGG [C82G A111G A120G A145C C150G C169A U176C], the reverse-splicing fitness was determined as 0.009.

GUGCCUUGCGCCGGGAAACCACGCAAGGGAUGGUGUCAAAUUCGGCGAAACCUAAGCGCCCGCCCGGGCGUAUGGCAACGCGGAGCCAAGCUUCGGCGCCUGCGCCGAUGGAGGUGUAGAGACUAGACGGCACCCACCUAAGGCAAACGCUAUGGUGAAGGCAUAGUCCAGGGAGGGGCGAAAGUCACACAAACCGG [C82G A111G U176G]: the reverse-splicing fitness came out at 0.0956.

With GUGCCUUGCGCCGGGAAACCACGCAAGGGAUGGUGUCAAAUUCGGCGAAACCUAAGCGCCCGCCCGGGCGUAUGGCAACGCCGAGCCAAGCUUCGGCGCCUGCGCCGAUGGAGGUGUAGGGACUAGACGGCACCCACCUAAGGCCAACGAUAUGGUGAAGGCAUAGUCCAGGGAGUGGCGAAAGUCACACAAACCGG [A111G A120G A145C C150A], the reverse-splicing fitness was 0.0175.
